Measured values taken from PMC7801609, “Isolation of MERS-related coronavirus from lesser bamboo bats that uses DPP4 and infects human-DPP4-transgenic mice” (Nature Communications, 2021).

B1: MERS-RBD fused to a C-terminal His-tag (domain or fragment)
chain: EAKPSGSVVEQAEGVECDFSPLLSGTPPQVYNFKRLVFTNCNYNLTKLLSLFSVNDFTCSQISPAAIASNCYSSLILDYFSYPLSMKSDLSVSSAGPISQFNYKQSFSNPTCLILATVPHNLTTITKPLKYSYINKCSRFLSDDRTEVPQLVNANQYSPCVSIVPSTVWEDGDYYRKQLSPLEGGGWLVASGSTVAMTEQLQMGFGITVQYGTDTNSVCPKLEFANDTKIASQLGNCVEY

Experiments:
Test in all cases: SPR; BIAcore X100, CM5 chip, 25 °C; […]; HBS-P+ buffer ([…]
[1] = target: HKU4-RBD fused to a C-terminal His-tag (Tylonycteris-bat-CoV-HKU4) (UniProt A3EX94)
[2] = target: MERS-RBD fused to a C-terminal His-tag (MERS-CoV) (UniProt K9N5Q8)
[3] = target: peptidase domain of hDPP4 (residues 39-766) fused to a C-terminal His-tag (human, UniProt P27487 39-766); settings: both partners purified
Chain of peptidase domain of hDPP4 (residues 39-766) fused to a C-terminal His-tag (human, UniProt P27487 39-766) (P27487 39-766): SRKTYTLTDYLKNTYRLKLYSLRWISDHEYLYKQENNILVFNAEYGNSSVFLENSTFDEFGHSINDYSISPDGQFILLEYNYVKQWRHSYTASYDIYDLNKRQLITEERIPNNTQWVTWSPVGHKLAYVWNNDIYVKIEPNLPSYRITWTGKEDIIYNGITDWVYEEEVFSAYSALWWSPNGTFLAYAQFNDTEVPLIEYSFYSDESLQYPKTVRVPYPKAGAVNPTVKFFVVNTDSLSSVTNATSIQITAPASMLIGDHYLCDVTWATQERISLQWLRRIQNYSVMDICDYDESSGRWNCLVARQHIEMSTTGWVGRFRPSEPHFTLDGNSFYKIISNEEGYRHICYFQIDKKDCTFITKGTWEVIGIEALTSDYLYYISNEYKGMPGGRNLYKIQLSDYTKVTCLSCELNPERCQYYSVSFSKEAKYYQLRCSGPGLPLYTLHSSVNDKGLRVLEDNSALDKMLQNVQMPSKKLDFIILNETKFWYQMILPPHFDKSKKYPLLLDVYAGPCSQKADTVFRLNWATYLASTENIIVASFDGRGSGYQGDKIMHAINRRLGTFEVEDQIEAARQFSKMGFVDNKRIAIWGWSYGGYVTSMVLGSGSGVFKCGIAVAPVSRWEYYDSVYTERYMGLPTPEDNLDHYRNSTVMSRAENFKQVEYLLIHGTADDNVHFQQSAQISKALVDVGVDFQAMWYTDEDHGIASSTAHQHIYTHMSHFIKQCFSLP

Row | Molecule | Kd [1] [nM] | Kd [2] [nM] | Kd [3] [nM]
1 | peptidase domain of dcDPP4 (residues 39-765) fused to a C-terminal His-tag (domain or fragment) | > 47700 | > 18700 | 
2 | peptidase domain of TpDPP4 (residues 37-764) fused to a C-terminal His-tag (domain or fragment) | 2580 |  | 
3 | peptidase domain of hDPP4 (residues 39-766) fused to a C-terminal His-tag (from UniProt P27487 39-766) (domain or fragment) | 1100 |  | 
4 | B1 |  |  | 632
